# Values quoted from earlier work as cited in patent US9169254B2, “Spiroimidazolone derivative” (Chugai Seiyaku Kabushiki Kaisha, priority 2009, dated 2015).
# B1: human PTH(1-84): "Native human parathyroid hormone is a polypeptide consisting of 84 amino acids" (protein, UniProt P01270 32-115, looked up)
# Parathyroid hormone: SVSEIQLMHNLGKHLNSMERVEWLRKKLQDVHNFVALGAPLAPRDAGSQRPRKKEDNVLVESHEKSLGEADKADVNVLTKAKSQ
# modifications: Parathyroid hormone
# Legend:
# [1] = subcutaneous administration; in 18 months; cited from earlier work
# [2] = subcutaneous administration; 18-month study; cited from earlier work
molecule,measurement,setting,value
B1,increase of the spine bone mineral density (BMD),[1],6.9%
same,decrease of the risk of vertebral fracture,[2],58%
